According to patent US20230159661A1 (ICHNOS SCIENCES, published 2023):
Where a chain is given by its changes, count along the chain named.

T1: hEGFR-IV_580-638 (human)
T1 construct: PCR amplified from the His-tagged hEGFR construct; purified on Ni sepharose
T1 chain: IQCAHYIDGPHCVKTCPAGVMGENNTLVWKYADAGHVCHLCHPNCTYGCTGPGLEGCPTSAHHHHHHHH

T2: Cynomolgus EGFR-IV_580-638 (cynomolgus)
T2 chain: T1 chain with P58A, T59R

T3: hEGFR-IV_556-638 (human)
T3 construct: PCR amplified from the His-tagged hEGFR construct; purified on Ni sepharose
T3 chain: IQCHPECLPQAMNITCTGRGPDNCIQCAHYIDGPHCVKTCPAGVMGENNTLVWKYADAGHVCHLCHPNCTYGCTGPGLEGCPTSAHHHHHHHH

T4: Cynomolgus EGFR-IV_556-638 (cynomolgus)
T4 chain: T3 chain with A11V, P82A, T83R

B1: 3A6 chimeric antibody (antibody, human IgG1, kappa, V domains shown)
VH: QVQLKQSGPGLVQPSQSLSITCTVSGFSLTSYGVHWVRQSPGKGLEWLGVIWSGGTTDYNAAFISRLSISQDNSKSQVFFKMNSLQANDTAIYYCAGNQGRTVRPTWFAYWGQGTLVTVSS
VL: DILLTQSPAILSVSPGERVSFSCRASQSIGTSIHWYQQRANGSPRLLIKYASESISGIPSRFSGSGSGTDFTLSINSVESEDIAHYYCQQNSNWPLTFGAGTKLELKR
notes: Mouse-human chimeric IgG1 kappa; also called chimeric 3A6 antibody
B2: 10E6 chimeric antibody (antibody, human IgG1, kappa, V domains shown)
VH: DVQLQESGPGRVKPSQSLSLTCTVTGYSLTSDYAWSWIRQFPGNRLEWMVYITYSGITTYNPSLKSRISITRDTSKNQFFLQLNSVTTEDTATYYCAGGDYGLSSWFAYWGQGTLVTVSS
VL: DIVLTQSPVTLSVTPGDRVSLSCRASQSISNYLHWYQQKSHESPRLLIKYASQSISGIPSRFSGSGSGTDFTLSINSVETEDFGMYFCQQSNNWPYTFGGGTKLEIKR
notes: Mouse-human chimeric IgG1 kappa; also called chimeric 10E6 antibody
B3: CD3×EGFR_SF3 (bispecific antibody, human IgG1, kappa, L234A L235A)
chain 1: EVQLVESGGGLVQPGGSLRLSCAASGFTFNTYAMNWVRQAPGKGLEWVARIRSKYNNYATYYADSVKSRFTISRDDSKNTLYLQMNSLRAEDTAVYYCVRHGNFGNSYVSYFAYWGQGTTVTVSSGGGGSGGGGSGGGGSEIVVTQSPATLSVSPGERATLSCRSSTGAVTESNYANWVQEKPGQAFRGLIGGANKRAPGVPARFSGSLSGDEATLTISSLQSEDFAVYYCALFYSNTWVFGQGTKLEIKGGGGTQVQLQESGPGLVKPSETLSLTCTVSGGSVSSGDYYWTWIRQSPGKGLEWIGHIYYSGNTNYNPSLKSRLTISIDTSKTQFSLKLSSVTAADTAIYYCVRDRVTGAFDIWGQGTMVTVSSASTKGPSVFPLAPSSKSTSGGTAALGCLVKDYFPEPVTVSWNSGALTSGVHTFPAVLQSSGLYSLSSVVTVPSSSLGTQTYICNVNHKPSNTKVDKKVEPKSCDKTHTCPPCPAPEAAGGPSVFLFPPKPKDTLMISRTPEVTCVVVDVSHEDPEVQFKWYVDGVEVHNAKTKPREEQYNSTFRVVSVLTVLHQDWLNGKEYKCKVSNKALPAPIEKTISKTKGQPREPAVYTLPPSREEMTKNQVKLVCLVTGFYPSDIAVEWESSGQPENNYYTTPPMLDSDGSFSLVSWLNVDKSRWQQGNIFSCSVMHEALHNRFTQKSLSLSPG
chain 2: not shown
chain 3: DKTHTCPPCPAPEAAGGPSVFLFPPKPKDTLMISRTPEVTCVVVDVSHEDPEVKFNWYVDGVEVHNAKTKPREEQYNSTYRVVSVLTVLHQDWLNGKEYKCKVSNKALPAPIEKTISKAKGQPREPEVATFPPSRDELTKNQVTLVCLVTGFYPSDIAVEWESNGQPENNYKTDPPLLESDGSFALSSRLRVDKSRWQQGNVFSCSVMHEALHNHYTQKSLSLSPG
notes: Batches AE042, P1069, P1027, TRS
B4: 3A6 mouse hybridoma antibody (subclone 3A6A12B5) (antibody, V domains shown)
VH: B1 VH
VL: DILLTQSPAILSVSPGERVSFSCRASQSIGTSIHWYQQRANGSPRLLIKYASESISGIPSRFSGSGSGTDFTLSINSVESEDIAHYYCQQNSNWPLTFGAGTKLELK
notes: Tested as mouse IgG (kappa) from hybridoma: supernatant of the parental clone 3A6, purified antibody of the subclone 3A6A12B5; also called 3A6A12F5; 3A6 hybridoma candidate
B5: 10E6 mouse hybridoma antibody (subclone 10E6F5) (antibody, V domains shown)
VH: B2 VH
VL: DIVLTQSPVTLSVTPGDRVSLSCRASQSISNYLHWYQQKSHESPRLLIKYASQSISGIPSRFSGSGSGTDFTLSINSVETEDFGMYFCQQSNNWPYTFGGGTKLEIK
notes: Tested as mouse IgG (kappa) from hybridoma: supernatant of the parental clone 10E6, purified antibody of the subclone 10E6F5; also called 10E6 hybridoma candidate

Assays:
hEGFR-IV_580-638 = target: T1, hEGFR-IV_580-638; test: SPR, antibody captured on Protein G
Description: (§1) Measurements were performed on a Biacore 2000 instrument (GE). […] Various human and cynomolgus EGFR constructs were injected as analyte at a concentration of 200 nM at a flow rate of 30 μl/min in HBS-EP buffer. Dissociation time was 4 min. After each binding event, the surface was regenerated with 10 μl of glycine buffer pH 1.5. To verify the integrity of the EGFR domain IV constructs, a polyclonal goat anti-EGFR known to us to contain at least one anti EGFR domain IV binder (AF231, Bio-Techne AG, Zug, Switzerland) was immobilized as described above and human and cynomolgus EGFR constructs were injected as described above.

[1] = target: T2, Cynomolgus EGFR-IV_580-638; test: SPR, antibody captured on Protein G
Description: as §1

hEGFR-IV_556-638 = target: T3, hEGFR-IV_556-638; test: SPR, chimeric antibody captured on Protein G, analyte 200 nM
Description: as §1

[2] = target: T4, Cynomolgus EGFR-IV_556-638; test: as above
Description: as §1

[3] = target: T5, membrane-bound human EGFR receptor expressed on cells (human, UniProt P00533 25-1210); test: flow cytometry on NCI-H1703 squamous cancer cells, anti-human IgG Fc-PE
T5 construct: whole, on cells; the construct transfected into BAF cells is not described; also called EGFR-transfected BAF cells
Description: (§2) FACS simple binding was performed using PBMCs (to assess binding to CD3) or NCI-H1703 squamous cancer cells (to assess binding to EGFR). Cells were resuspended at 10⁶ cells/ml in FACS buffer (1×PBS+10% Versene+2% FBS), and 100 ul were added to U-bottom 96-well plates which were then centrifuged at 350 g for 3 min. […] The cells were washed in FACS buffer and stained with the following antibodies (ThermoFisher): anti-human CD4 PE-eF610 (1/100), anti-human CD8a APC (1/100) and anti-human IgG (Fc-gamma specific) PE (1/200) for 20 min 4° C. Cells were washed with FACS buffer and resuspended in FACS buffer containing Sytox green viability dye (1/200), for 20 min at 4° C. and acquired on a CytoFlex (Beckman Coulter).
(§3) For the PBMCs, the cells were also labelled with anti-CD4 or anti-CD8 antibodies.

[4] = target: T6, CD3 on human T cells (PBMCs) (human, UniProt P07766 23-207); test: flow cytometry on PBMCs, T cells, anti-human IgG Fc-PE
T6 construct: whole, on cells; also called CD3ε; CD4+ T cells
T6 sequence (P07766 23-207): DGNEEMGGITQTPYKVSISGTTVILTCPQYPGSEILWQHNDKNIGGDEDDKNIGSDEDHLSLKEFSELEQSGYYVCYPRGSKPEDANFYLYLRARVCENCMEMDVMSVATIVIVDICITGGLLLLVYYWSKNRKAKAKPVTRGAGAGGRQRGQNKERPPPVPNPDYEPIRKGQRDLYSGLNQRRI
Description: as §2, §3

[5] = target: T6, CD3 on human T cells (PBMCs); test: flow cytometry on PBMCs, CD8+ T cells, anti-human IgG Fc-PE
Description: as §2, §3

[6] = target: T7, human EGFR soluble extracellular region with C-terminal poly-histidine tag (hEGFR) (human, UniProt P00533 25-638); test: ELISA, single EGFR binding, coated huEGFR-His, anti-human IgG Fab-HRP
T7 construct: also called human EGFR His-tagged protein; soluble human EGFR

[7] = target: T6, CD3 on human T cells (PBMCs); test: flow cytometry on PBMCs, CD4+ T cells, anti-human IgG Fc-PE
Description: as §2, §3

[8] = target: T7, human EGFR soluble extracellular region …; test: dual binding ELISA, coated human EGFR, detection with huCD3-biotin and streptavidin-HRP
hEGFR-I-II-III_hErbB3-IV = target: T8, hEGFR-I-II-III_hErbB3-IV (human); test: ELISA, coated antigen 2 ug/ml
T8 construct: also called chimeric EGFR I-III Her3 IV molecule; EGFR-Her3 chimeric molecule (B)
Description: Supernatants from both subclones were harvested and purified using a LC-kappa mouse affinity matrix (Life technologies), according to the manufacturer's instructions. These purified antibodies were tested by ELISA on 96-well plates coated with either soluble human EGFR or recombinant EGFR-Her3 chimeric constructs. These molecules were diluted at 2 ug/ml in PBS and immobilized overnight at 4° C. on a high binding 96-well plates. […] As a control, Panitumumab (Vectibix®) was used at the same concentrations. […] Following this incubation, the plates were washed and incubated with 100 ul of TMB substrate. The reaction was stopped by adding 100 μl of H₂SO₄ 2N and the absorbance was read at 450 nm on a Synergy HT2 spectrophotometer (Biotek, USA; distributor: WITTEC AG, Littau, Switzerland).

Binder | binding result (hEGFR-IV_580-638) | binding result [1] | binding result (hEGFR-IV_556-638) | binding result [2] | binding result (hEGFR-I-II-III_hErbB3-IV) | further results
B1 | no binding (tested: 200 nM) | no binding (tested: 200 nM) | binds | binds |  | 
B2 | no binding (tested: 200 nM) | no binding (tested: 200 nM) | binds | binds |  | 
B3 |  |  |  |  |  | EC50 [3]: 0.182 µg/mL; EC50 [4]: 5.93 µg/mL; EC50 [5]: 3.91 µg/mL; EC50 [6]: 0.053 µg/mL; EC50 [7]: 6.05 µg/mL; EC50 [8]: 0.171 µg/mL
B4 |  |  |  |  | no binding (tested: 10 to 0.01 µg/ml) | 
B5 |  |  |  |  | no binding (tested: 10 to 0.01 µg/ml) | 
